The text below walks through data of patent US20220193237A1 (Bristol-Myers Squibb, published 2022).

Positions count from the first letter of the chain named. Numbers in names are those of the source. Read-outs that look alike come from different tables or passages of the source. Where only a bound is given, the exact number is not on record here.

Experiment [1] concerns the target T1, human CTLA-4 on 58 α-β-CTLA-4/CD3 ζ cells (human; mouse (mCD3ζ)).
T1 construct: also called 58αβ-hCTLA4/mCD3ζ cells; 58αβ-CTLA4/mCD3ζ cells
The experiment in a line: flow cytometry (GMFI), full-length IgG on 58 α-β-CTLA-4/CD3 ζ cells, pH 7.2.

Experiment [2] concerns the target T1, human CTLA-4 on 58 α-β-CTLA-4/CD3 ζ …. The experiment in a line: flow cytometry (GMFI), full-length IgG on 58 α-β-CTLA-4/CD3 ζ cells, pH 6.3.
Experiment [3] has the same target. The experiment in a line: flow cytometry (GMFI), full-length IgG on 58 α-β-CTLA-4/CD3 ζ cells, pH 6.6.
Experiment [4] deals with T2, monomeric human CTLA-4 (human, UniProt P16410 36-161, limits assumed).
T2 construct: Soluble monomeric analyte in SPR; also called huCTLA-4
T2 sequence: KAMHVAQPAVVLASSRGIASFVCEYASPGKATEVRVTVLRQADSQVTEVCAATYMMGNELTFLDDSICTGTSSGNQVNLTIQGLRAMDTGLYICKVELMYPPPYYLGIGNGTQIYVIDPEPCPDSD
The experiment in a line: SPR, captured Fab, pH 6.0.

The target in experiment [5] is T2, monomeric human CTLA-4. The experiment in a line: SPR, captured Fab, pH 7.4.
Experiment [6] concerns the target T2, monomeric human CTLA-4. The experiment in a line: SPR, captured Fab, pH 6.0 vs 7.4.
Experiment [7] concerns the target T1, human CTLA-4 on 58 α-β-CTLA-4/CD3 ζ …. The experiment in a line: flow cytometry (APC mean FI), Fab on 58αβ-CTLA4/mCD3ζ cells, pH 6.7. The procedure: (§1) Antibodies were titrated from 100 μg/mL at a 1:4 dilution across 12 points in pH-specific buffers and incubated for 30-60 minutes. Buffers contained HBSS, 2% FBS^HI, 0.02% sodium azide, 2 mM EDTA, and sodium phosphate buffer (pH 5.4). Sodium phosphate buffer was added until desired pH was reached (7.2, 6.7, 6.2). Approximately 3e5 cells/well were tested for each cell line. […] Detection was done with a monovalent anti-hKappa secondary nanobody conjugated to Alexa647 and used at a dilution of 1:2000. Cells were fixed with BD Fix Solution I for 30 minutes prior to resuspension in pH-specific buffers and reading on the cytometer (BD Fortessa).
(§2) The experimental protocol was the same as used to obtain the data of FIGS. 16A-C.

Experiment [8] has as its target T3, monomeric cyno CTLA-4 (cynomolgus macaque (Macaca fascicularis), UniProt G7PL88 36-161).
T3 construct: also called CTLA-4 from the cynomolgus macaque Macaca fascicularis
T3 sequence: T2 sequence with S14N, I18T, L106M
The experiment in a line: SPR, Fab, monomeric cyno CTLA-4 as analyte; koff (s^-1, linear axis 0 to 0.3) plotted against pH. The procedure:
(§3) The pH dependence of binding of selected antibodies of the present invention to human CTLA-4 and cyno CTLA-4 was measured by surface plasmon resonance (SPR) spectroscopy, essentially as described in Example 3. Briefly, antibodies were studied as monovalent Fab fragments. Anti-human kappa polyclonal capture antibody (Southern Biotech, Ala. USA) was immobilized on a ethylenediamine-blocked CM4 sensor chip in a Biacore T200 surface plasmon resonance system. Fab fragments of selected antibodies of the present invention were then captured on one flow cell each. […] Running buffer was 20 mM BisTris, 150 mM NaCl, 0.05% Tween-20, 1 g/L BSA, at a pH ranging from 5.5 to 7.4 in 0.1-0.2 pH unit intervals (12 total). The surface was regenerated with 1/200 H₃PO₄ between cycles. […] Where required, the Rₘₐₓ was fixed by calculating expected binding based on capture level and apparent activity from other fits for the same Fab.

Experiment [9] addresses T2, monomeric human CTLA-4. The experiment in a line: SPR, pH 6.0 and pH 7.5 (FIG. 6). The procedure:
(§4) Unless otherwise indicated, experiments were performed with a BIACORE® SPR surface plasmon resonance spectrometer (Biacore AB, Uppsala, Sweden). Antibodies were tested as monovalent Fab fragments to simplify analysis.
(§5) Monomeric human CTLA-4 was flowed as analyte with up to 2 μM top concentration. Between cycles, the capture surface was regenerated with 75 mM phosphoric acid. Experiments were run on a BIACORE® T200 instrument at 37° C. Running buffers were HEPES buffered saline for pH 7.4 experiments and Bis-Tris buffered saline for lower pH experiments. […] Double referenced sensorgrams were fitted to a 1:1 Langmuir binding model with mass transport to determine equilibrium dissociation constants (KD), as well as association (kₐ) and dissociation (kd) rate constants where appropriate.

Experiment [10] concerns the target T3, monomeric cyno CTLA-4. The experiment in a line: SPR, Fab, monomeric cyno CTLA-4 as analyte; KD (M, log axis 10^-9 to 10^-5) plotted against pH. The procedure:
as §3

Experiment [11] has as its target T1, human CTLA-4 on 58 α-β-CTLA-4/CD3 ζ …. The experiment in a line: flow cytometry (APC mean FI), Fab on 58αβ-CTLA4/mCD3ζ cells, pH 6.2. On the procedure:
as §1, §2

Experiment [12] concerns the target T2, monomeric human CTLA-4. The experiment in a line: SPR, captured Fab, pH 6.0. On the procedure: as §4, §5
The source holds these as a separate data set.

Experiment [13] has as its target T2, monomeric human CTLA-4. The experiment in a line: SPR, captured Fab, pH 7.4. On the procedure:
as §4, §5
The source holds these as a separate data set.

Experiment [14] deals with T2, monomeric human CTLA-4. The experiment in a line: SPR, captured Fab, pH 6.0 and pH 7.4.
In experiment [15] the target is T2, monomeric human CTLA-4. The experiment in a line: SPR, captured Fab, pH 6.0 vs 7.4. The procedure:
as §4, §5
The source holds these as a separate data set.

Experiment [16] addresses T2, monomeric human CTLA-4. The experiment in a line: SPR, captured Fab, pH 7.4; pH 7.4. The procedure:
as §4, §5

B1: ipi.71 (full-length IgG) (antibody, V domains shown)
VH: QVQLVESGGGVVQPGRSLRLSCAASGFTFSHYTMHWVRQAPGKGLEWVTFISYDGHNKYYADSVKGRFTISRDNSKNTLYLQMNSLRAEDTAIYYCARTGWLGPFDYWGQGTLVTVSS
VL: not shown
notes: Full-length bivalent IgG (human IgG1); heavy chain entry is without the C-terminal lysine
B1: the “EC50 (read off the curve)” value in experiment [1], in experiment [2] and in experiment [3] was roughly 1 nM in each case.

B2: ipi.106 Fab (Fab, V domains shown)
VH: B1 VH with T99H
VL: EIVLTQSPGTLSLSPGERATLSCRASQEVGESELAWYQQKPGQAPRLLIYGAFSRATGIPDRFSGSGSGTDFTLTISRLEPEDFAVYYCQQYGSSPWTFGQGTKVEIKR
notes: Tested as monovalent Fab
As to B2, in the experiment with monomeric human CTLA-4 [4], binding was characterised by a dissociation constant (Kd) of 18 nM, the kon was determined as 1.2e+06 M⁻¹ s⁻¹ and the “t1/2” value was 33 s. The Kd in the experiment with monomeric human CTLA-4 [5] is greater than 350 nM. The “KD 7.4/6 (APBP)” value with monomeric human CTLA-4 [6] was greater than 20. Moreover, the “EC50 (read off the curve)” value in [7] was roughly 3 µg/mL. In the experiment with monomeric cyno CTLA-4 [8], the binding result was “binds”.

B3: ipi.64 Fab (Fab, V domains shown)
VH: B1 VH with H56N
VL: not shown
notes: Tested as monovalent Fab; also called IPI.64 mutant fab; LCDR1 S28E/S31D and HCDR1 S31H
For the molecule B3, in the experiment with monomeric human CTLA-4 [4], the Kd worked out at 2.7 nM, the kon was determined as 1.4e+06 M⁻¹ s⁻¹ and the “t1/2” value is 182 s. In the experiment with monomeric human CTLA-4 [5], binding was put at a Kd of 37 nM, the kon stood at 780000 M⁻¹ s⁻¹ and the “t1/2” value came to 25 s. Besides, in the experiment with monomeric human CTLA-4 [9], the “CAPBP (ratio of KD normalized to ipilimumab)” value was found to be 27.2. In the experiment with monomeric human CTLA-4 [6], the “KD 7.4/6 (APBP)” value was 13, the “ka 6/7.4” value came to 1.8 and the “t1/2 6/7.4” value is 7.6. Besides, in the experiment with monomeric cyno CTLA-4 [10], the binding result is reported as “binds”.

B4: ipi.100 Fab (Fab, V domains shown)
VH: B1 VH with H56N
VL: not shown
notes: Tested as monovalent Fab
As for B4, in the experiment with monomeric human CTLA-4 [4], binding was put at a Kd of 2.5 nM, the kon amounted to 940000 M⁻¹ s⁻¹ and the “t1/2” value was determined as 289 s. Also, in the experiment with monomeric human CTLA-4 [5], the Kd stood at 46 nM, the kon is 460000 M⁻¹ s⁻¹ and the “t1/2” value worked out at 33 s. In the experiment with monomeric human CTLA-4 [6], the “KD 7.4/6 (APBP)” value is 17, the “ka 6/7.4” value came out at 2.1 and the “t1/2 6/7.4” value was 8.8. Besides, the “EC50 (read off the curve)” value in experiment [11] is roughly 0.1 µg/mL. Further, the binding result with monomeric cyno CTLA-4 [10] is “binds”.

B5: ipi.3 Fab (Fab, V domains shown)
VH: B1 VH with H31S, H56N, T99H
VL: not shown
notes: Tested as monovalent Fab; also called HCDR3 T95H (Kabat)
For the molecule B5, the Kd came out at 180 nM with monomeric human CTLA-4 [12], 200 nM with monomeric human CTLA-4 [13], 76 nM with monomeric human CTLA-4 [4] and 97 nM with monomeric human CTLA-4 [5]. The koff in the experiment with monomeric human CTLA-4 [12] came to 0.15 s⁻¹; in the experiment with monomeric human CTLA-4 [13], 0.094 s⁻¹. In addition, the kon in the experiment with monomeric human CTLA-4 [12] stood at 840000 M⁻¹ s⁻¹; with monomeric human CTLA-4 [13], 480000 M⁻¹ s⁻¹; with monomeric human CTLA-4 [4] it was 1.1e+06 M⁻¹ s⁻¹. The “t1/2” value in the experiment with monomeric human CTLA-4 [4] was 9 s. Besides, the “fold decrease of affinity (increased KD) vs ipilimumab” value in the experiment with monomeric human CTLA-4 [14] was roughly 4 fold. Also, the figures for the “KD 7.4/6 (APBP)” value in the experiment with monomeric human CTLA-4 [15] and with monomeric human CTLA-4 [6] were 0.9 and 1.3, respectively.

B6: ipi.90 Fab (Fab, V domains shown)
VH: B1 VH with H56N, T99H
VL: B2 VL with E31D
notes: Tested as monovalent Fab
For B6, in the experiment with monomeric human CTLA-4 [4], binding was characterised by a dissociation constant (Kd) of 36 nM, the kon came out at 1.9e+06 M⁻¹ s⁻¹ and the “t1/2” value was 10 s. In addition, the “KD 7.4/6 (APBP)” value in the experiment with monomeric human CTLA-4 [6] is greater than 28. The same molecule came in with a Kd in the experiment with monomeric human CTLA-4 [16] greater than 1000 nM.
